# Measured values published in US20180155451A1 (published 2018).
# T1: FcγRIIa H (human, UniProt P12318 34-217)
# T1 construct: extracellular domain; also called FcγRIIa type H; 2aH
# T1 sequence (looked up): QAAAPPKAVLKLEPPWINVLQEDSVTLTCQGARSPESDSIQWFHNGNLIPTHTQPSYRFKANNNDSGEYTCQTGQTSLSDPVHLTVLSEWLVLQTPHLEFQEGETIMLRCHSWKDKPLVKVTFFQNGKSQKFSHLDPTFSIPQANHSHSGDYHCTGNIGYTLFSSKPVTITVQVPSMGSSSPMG
# T2: FcγRIIb extracellular domain with C-terminal His tag (human, UniProt P31994 43-217)
# T2 construct: extracellular domain; Expressed in FreeStyle293 cells; used as analyte in Biacore; also called FcgRIIb; 2b; not shown: C-terminal His tag
# T2 sequence (looked up): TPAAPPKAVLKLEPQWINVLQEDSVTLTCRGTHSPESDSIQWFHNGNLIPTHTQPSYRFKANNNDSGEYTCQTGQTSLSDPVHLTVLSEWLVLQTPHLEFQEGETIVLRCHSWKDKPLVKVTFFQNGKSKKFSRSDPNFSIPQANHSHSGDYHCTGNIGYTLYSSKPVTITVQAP
# T3: FcγRIIb (human, UniProt P31994 43-217)
# T3 construct: extracellular domain; also called 2b
# T3 sequence (looked up): T2 sequence (looked up)
# B1: GpH7-A5/GpH7-B3 variant S267_19Q/GpL16-k0 (antibody, human IgG1, kappa)
# heavy 1: not shown
# heavy 2: not shown
# light: DIVMTQSPLSLPVTPGEPASISCQASESLVHSNRNTYLHWYLQKPGQSPQLLIYKVSNRFSGVPDRFSGSGSGTDFTLKISRVEAEDVGVYYCSQNTHVPPTFGQGTKVEIERTVAAPSVFIFPPSDEQLKSGTASVVCLLNNFYPREAKVQWKVDNALQSGNSQESVTEQDSKDSTYSLSSTLTLSKADYEKHKVYACEVTHQGLSSPVTKSFNRGEC
# notes: heterodimerized IgG1, mutation in one H chain only; also called He Ab
# B2: GpH7-A5/GpH7-B3 variant V266_16H/GpL16-k0 (antibody, human IgG1, kappa)
# heavy 1: not shown
# heavy 2: not shown
# light: B1 light
# notes: as for B1
# B3: GpH7-A5/GpH7-B3 variant S298_08L/GpL16-k0 (antibody, human IgG1, kappa)
# heavy 1: not shown
# heavy 2: not shown
# light: B1 light
# notes: as for B1
# B4: GpH7-A5/GpH7-B3 variant V266_19Q/GpL16-k0 (antibody, human IgG1, kappa)
# heavy 1: not shown
# heavy 2: not shown
# light: B1 light
# notes: as for B1
# B5: GpH7-A5/GpH7-B3 variant Y300_10E/GpL16-k0 (antibody, human IgG1, kappa)
# heavy 1: not shown
# heavy 2: not shown
# light: B1 light
# notes: as for B1
# B6: GpH7-A5/GpH7-B3 variant S267_20W/GpL16-k0 (antibody, human IgG1, kappa)
# heavy 1: not shown
# heavy 2: not shown
# light: B1 light
# notes: as for B1
# B7: GpH7-A5/GpH7-B3 variant V266_20W/GpL16-k0 (antibody, human IgG1, kappa)
# heavy 1: not shown
# heavy 2: not shown
# light: B1 light
# notes: as for B1
# B8: GpH7-A5/GpH7-B3 variant L328_03V/GpL16-k0 (He Ab) (antibody, human IgG1, kappa)
# heavy 1: not shown
# heavy 2: not shown
# light: B1 light
# notes: Substitution in one H chain only; position in EU numbering; also called L328V heterodimerized antibody
# B9: GpH7-A5/GpH7-B3 variant K334_15Y/GpL16-k0 (He Ab) (antibody, human IgG1, kappa)
# heavy 1: not shown
# heavy 2: not shown
# light: B1 light
# notes: Substitution in one H chain only; position in EU numbering; also called K334Y heterodimerized antibody
# B10: GpH7-A5/GpH7-B3 variant K334_16H/GpL16-k0 (He Ab) (antibody, human IgG1, kappa)
# heavy 1: not shown
# heavy 2: not shown
# light: B1 light
# notes: Substitution in one H chain only; position in EU numbering; also called K334H heterodimerized antibody
# B11: GpH7-B3 variant L328_03V/GpL16-k0 (Ho Ab) (antibody, human IgG1, kappa)
# heavy: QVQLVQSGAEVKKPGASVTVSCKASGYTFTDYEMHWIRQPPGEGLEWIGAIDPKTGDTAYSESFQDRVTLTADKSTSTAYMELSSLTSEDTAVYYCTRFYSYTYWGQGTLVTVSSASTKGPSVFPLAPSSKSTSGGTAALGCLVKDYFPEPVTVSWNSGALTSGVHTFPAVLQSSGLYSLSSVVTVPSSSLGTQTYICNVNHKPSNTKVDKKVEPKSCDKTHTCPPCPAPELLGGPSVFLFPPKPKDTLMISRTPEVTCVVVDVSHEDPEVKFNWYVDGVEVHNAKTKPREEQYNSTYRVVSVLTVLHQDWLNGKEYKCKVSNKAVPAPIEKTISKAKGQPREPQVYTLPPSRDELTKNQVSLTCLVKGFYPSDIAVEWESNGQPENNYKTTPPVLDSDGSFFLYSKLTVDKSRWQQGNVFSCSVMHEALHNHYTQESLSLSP
# light: B1 light
# notes: Substitution in both H chains; position in EU numbering; also called L328V homodimerized antibody
# B12: GpH7-B3 variant S267_10E/GpL16-k0 (Ho Ab) (antibody, human IgG1, kappa)
# heavy: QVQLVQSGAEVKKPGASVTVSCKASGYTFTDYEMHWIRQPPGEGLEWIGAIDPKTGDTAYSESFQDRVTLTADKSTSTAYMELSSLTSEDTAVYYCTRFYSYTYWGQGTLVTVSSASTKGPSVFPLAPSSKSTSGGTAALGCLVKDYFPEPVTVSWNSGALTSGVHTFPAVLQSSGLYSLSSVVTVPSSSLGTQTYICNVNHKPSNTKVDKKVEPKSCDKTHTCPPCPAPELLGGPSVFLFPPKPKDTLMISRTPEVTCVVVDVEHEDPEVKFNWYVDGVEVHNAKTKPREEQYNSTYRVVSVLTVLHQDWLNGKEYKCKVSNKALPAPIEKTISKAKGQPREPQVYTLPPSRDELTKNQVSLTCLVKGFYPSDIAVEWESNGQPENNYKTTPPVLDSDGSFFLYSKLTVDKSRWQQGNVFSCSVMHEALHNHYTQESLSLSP
# light: B1 light
# notes: Substitution in both H chains; position in EU numbering; also called S267E homodimerized antibody
# B13: GpH7-B3 variant T335_09D/GpL16-k0 (Ho Ab) (antibody, human IgG1, kappa)
# heavy: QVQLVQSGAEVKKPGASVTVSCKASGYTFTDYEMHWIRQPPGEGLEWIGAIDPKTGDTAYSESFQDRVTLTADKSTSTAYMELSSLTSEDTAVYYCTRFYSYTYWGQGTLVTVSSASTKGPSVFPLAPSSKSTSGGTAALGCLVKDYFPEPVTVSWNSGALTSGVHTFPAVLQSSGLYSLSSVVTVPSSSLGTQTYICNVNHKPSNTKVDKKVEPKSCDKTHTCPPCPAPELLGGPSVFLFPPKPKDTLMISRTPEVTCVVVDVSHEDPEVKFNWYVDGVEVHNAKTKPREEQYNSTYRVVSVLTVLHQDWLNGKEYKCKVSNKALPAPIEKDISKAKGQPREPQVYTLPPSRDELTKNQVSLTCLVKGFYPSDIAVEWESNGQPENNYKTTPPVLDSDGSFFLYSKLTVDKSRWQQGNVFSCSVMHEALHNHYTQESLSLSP
# light: B1 light
# notes: Substitution in both H chains; position in EU numbering; also called T335D homodimerized antibody
# B14: GpH7-B3 variant S239_09D/GpL16-k0 (Ho Ab) (antibody, human IgG1, kappa)
# heavy: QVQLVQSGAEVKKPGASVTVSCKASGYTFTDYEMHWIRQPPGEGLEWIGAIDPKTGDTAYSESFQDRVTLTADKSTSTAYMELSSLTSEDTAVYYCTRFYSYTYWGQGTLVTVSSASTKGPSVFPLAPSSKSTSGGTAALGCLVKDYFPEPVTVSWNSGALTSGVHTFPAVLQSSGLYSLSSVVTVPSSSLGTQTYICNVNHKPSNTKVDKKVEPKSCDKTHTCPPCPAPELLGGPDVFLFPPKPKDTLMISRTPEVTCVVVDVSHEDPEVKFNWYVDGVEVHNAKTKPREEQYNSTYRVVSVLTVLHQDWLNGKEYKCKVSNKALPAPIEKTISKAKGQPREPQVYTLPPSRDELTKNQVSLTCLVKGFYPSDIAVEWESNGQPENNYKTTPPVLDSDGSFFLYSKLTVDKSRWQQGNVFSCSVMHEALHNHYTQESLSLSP
# light: B1 light
# notes: Substitution in both H chains; position in EU numbering; also called S239D homodimerized antibody
# B15: GpH7-B3 variant S267_02A/GpL16-k0 (Ho Ab) (antibody, human IgG1, kappa)
# heavy: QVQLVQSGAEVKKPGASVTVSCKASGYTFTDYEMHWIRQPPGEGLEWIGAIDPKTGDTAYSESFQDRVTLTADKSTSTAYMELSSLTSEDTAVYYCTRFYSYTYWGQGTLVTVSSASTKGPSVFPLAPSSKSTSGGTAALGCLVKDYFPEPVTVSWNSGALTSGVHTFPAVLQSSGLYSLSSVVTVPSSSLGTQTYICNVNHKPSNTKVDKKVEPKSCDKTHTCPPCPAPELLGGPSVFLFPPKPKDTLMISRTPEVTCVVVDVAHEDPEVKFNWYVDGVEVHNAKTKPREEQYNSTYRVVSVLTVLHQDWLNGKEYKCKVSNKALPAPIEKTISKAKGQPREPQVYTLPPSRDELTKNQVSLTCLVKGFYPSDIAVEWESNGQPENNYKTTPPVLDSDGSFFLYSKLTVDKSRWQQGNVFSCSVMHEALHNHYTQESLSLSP
# light: B1 light
# notes: Substitution in both H chains; position in EU numbering; also called S267A homodimerized antibody
# B16: GpH7-B3 variant L328_15Y/GpL16-k0 (Ho Ab) (antibody, human IgG1, kappa)
# heavy: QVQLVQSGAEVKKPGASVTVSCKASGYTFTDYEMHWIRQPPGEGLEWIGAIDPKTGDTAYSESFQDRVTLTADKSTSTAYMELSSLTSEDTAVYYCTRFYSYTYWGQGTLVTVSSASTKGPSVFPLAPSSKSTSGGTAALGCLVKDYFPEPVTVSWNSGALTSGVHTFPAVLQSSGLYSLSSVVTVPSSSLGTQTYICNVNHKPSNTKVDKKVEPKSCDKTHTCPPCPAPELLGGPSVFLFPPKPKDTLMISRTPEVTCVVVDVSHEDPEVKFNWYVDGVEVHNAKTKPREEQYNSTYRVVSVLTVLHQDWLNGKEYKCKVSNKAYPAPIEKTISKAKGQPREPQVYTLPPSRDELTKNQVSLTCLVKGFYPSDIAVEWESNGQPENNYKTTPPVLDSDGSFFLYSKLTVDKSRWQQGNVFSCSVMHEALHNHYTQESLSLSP
# light: B1 light
# notes: Substitution in both H chains; position in EU numbering; also called L328Y homodimerized antibody
# B17: GpH7-B3 variant Y300_19Q/GpL16-k0 (Ho Ab) (antibody, human IgG1, kappa)
# heavy: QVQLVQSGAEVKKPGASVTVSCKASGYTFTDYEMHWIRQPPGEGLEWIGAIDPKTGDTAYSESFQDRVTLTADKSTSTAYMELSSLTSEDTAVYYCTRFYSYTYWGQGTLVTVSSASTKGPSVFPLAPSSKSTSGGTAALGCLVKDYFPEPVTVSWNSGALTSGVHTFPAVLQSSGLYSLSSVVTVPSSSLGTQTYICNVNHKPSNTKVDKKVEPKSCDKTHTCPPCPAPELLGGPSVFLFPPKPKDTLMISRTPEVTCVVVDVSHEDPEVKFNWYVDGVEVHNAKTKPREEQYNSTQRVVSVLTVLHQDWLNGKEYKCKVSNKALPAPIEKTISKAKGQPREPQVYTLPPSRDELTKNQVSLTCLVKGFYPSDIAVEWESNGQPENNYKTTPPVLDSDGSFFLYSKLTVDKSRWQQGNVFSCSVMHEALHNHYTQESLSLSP
# light: B1 light
# notes: Substitution in both H chains; position in EU numbering; also called Y300Q homodimerized antibody
# B18: GpH7-B3 variant P331_04F/GpL16-k0 (Ho Ab) (antibody, human IgG1, kappa)
# heavy: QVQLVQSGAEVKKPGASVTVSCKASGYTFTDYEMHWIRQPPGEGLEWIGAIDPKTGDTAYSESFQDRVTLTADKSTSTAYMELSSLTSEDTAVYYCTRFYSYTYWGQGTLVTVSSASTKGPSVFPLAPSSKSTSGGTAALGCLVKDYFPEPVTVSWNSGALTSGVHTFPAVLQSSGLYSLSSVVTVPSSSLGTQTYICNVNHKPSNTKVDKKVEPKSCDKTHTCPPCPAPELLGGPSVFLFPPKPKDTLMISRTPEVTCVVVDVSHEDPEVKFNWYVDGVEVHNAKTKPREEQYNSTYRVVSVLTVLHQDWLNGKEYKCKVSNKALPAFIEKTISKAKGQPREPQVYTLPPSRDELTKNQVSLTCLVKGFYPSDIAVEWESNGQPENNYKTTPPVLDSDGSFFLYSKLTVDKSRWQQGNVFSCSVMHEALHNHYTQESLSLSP
# light: B1 light
# notes: Substitution in both H chains; position in EU numbering; also called P331F homodimerized antibody
# B19: GpH7-B3 variant S267_09D/GpL16-k0 (Ho Ab) (antibody, human IgG1, kappa)
# heavy: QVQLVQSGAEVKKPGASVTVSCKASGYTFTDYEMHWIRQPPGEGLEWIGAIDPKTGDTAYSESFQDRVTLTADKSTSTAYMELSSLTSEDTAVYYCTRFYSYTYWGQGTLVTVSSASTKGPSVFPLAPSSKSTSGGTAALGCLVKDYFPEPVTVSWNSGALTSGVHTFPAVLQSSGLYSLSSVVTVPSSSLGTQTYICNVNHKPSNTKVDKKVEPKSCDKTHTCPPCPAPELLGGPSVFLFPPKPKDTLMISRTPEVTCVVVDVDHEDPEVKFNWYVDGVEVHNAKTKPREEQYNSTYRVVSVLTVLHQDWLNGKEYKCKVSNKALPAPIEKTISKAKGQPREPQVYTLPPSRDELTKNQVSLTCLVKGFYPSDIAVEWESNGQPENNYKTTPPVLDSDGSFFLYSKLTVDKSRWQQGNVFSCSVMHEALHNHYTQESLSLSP
# light: B1 light
# notes: Substitution in both H chains; position in EU numbering; also called S267D homodimerized antibody
# B20: GpH7-B3 variant L328_06M/GpL16-k0 (Ho Ab) (antibody, human IgG1, kappa)
# heavy: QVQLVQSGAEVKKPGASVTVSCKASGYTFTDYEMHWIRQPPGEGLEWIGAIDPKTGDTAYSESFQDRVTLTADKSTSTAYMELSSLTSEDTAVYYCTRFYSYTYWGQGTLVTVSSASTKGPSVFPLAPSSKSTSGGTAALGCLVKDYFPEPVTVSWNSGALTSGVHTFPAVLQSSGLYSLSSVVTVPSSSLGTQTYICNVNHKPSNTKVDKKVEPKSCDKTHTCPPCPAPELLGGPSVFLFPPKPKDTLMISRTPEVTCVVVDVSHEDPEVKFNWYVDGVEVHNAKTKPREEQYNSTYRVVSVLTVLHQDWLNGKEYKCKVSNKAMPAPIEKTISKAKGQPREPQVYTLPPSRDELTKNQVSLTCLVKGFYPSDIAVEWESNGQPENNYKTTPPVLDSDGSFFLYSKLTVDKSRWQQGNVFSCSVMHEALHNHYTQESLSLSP
# light: B1 light
# notes: Substitution in both H chains; position in EU numbering; also called L328M homodimerized antibody
# B21: GpH7-B3 variant S298_08L/GpL16-k0 (Ho Ab) (antibody, human IgG1, kappa)
# heavy: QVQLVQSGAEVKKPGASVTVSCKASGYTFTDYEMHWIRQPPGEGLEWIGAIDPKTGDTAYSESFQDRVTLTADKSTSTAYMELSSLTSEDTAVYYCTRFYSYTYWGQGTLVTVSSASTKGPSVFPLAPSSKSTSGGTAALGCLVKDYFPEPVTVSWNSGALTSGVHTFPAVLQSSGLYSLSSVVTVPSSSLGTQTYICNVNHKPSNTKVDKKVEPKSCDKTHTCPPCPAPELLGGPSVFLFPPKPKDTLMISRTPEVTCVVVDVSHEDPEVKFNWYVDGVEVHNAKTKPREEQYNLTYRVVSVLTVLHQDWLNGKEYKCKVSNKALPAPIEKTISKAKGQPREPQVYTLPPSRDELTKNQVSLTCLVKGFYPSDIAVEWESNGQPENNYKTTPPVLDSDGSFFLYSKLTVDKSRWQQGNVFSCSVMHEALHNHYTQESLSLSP
# light: B1 light
# notes: Substitution in both H chains; position in EU numbering; also called S298L homodimerized antibody
# B22: GpH7-B3 variant S267_03V/GpL16-k0 (Ho Ab) (antibody, human IgG1, kappa)
# heavy: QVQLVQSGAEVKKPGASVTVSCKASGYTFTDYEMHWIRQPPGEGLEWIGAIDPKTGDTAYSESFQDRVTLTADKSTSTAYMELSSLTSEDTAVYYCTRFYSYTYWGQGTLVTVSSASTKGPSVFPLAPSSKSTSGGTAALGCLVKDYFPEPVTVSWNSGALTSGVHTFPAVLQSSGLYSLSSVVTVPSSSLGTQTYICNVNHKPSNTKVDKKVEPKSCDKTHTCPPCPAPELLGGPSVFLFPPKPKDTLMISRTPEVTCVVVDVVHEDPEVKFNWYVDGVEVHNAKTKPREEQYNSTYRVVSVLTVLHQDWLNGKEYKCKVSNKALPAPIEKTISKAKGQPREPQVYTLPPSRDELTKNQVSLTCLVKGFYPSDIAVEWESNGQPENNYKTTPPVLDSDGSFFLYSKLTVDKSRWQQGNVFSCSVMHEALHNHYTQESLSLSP
# light: B1 light
# notes: Substitution in both H chains; position in EU numbering; also called S267V homodimerized antibody
# Biological target: T1, FcγRIIa H
# Test: SPR; He/Con_2aH divided by He/Con_2b (FcγRIIb)
# Procedure: The heterodimerized antibodies He Abs in which one of the H chains was introduced with an alteration were assayed for their binding activities to each activating FcγR and inhibitory FcγR according to the method described in Example 4. […] The activating FcγRs in FIGS. 26, 27, 28, and 29 are FcγRIa, FcγRIIa (R), FcγRIIa (H), and FcγRIIIa, respectively.
# Analysis of interaction between objective antibody and the FcγR was carried out using Biacore T100 (GE Healthcare). HBS-EP+ (GE Healthcare) was used as the running buffer, and the measurement temperature was set to 25° C. Chips produced by immobilizing the antigen peptide by the amine coupling method to a Series S Sencor Chip CM5 (GE Healthcare), or alternatively, chips produced by allowing preliminarily biotinylated antigen peptides to interact with and immobilize onto a Series S Sensor Chip SA (certified) (GE Healthcare) were used. Antibodies of interest were captured onto an antigen peptide-immobilized chip, and allowed to interact to each FcγR diluted with running buffer. To regenerate and repeatedly use the chip, the antibodies captured on the chip were washed off by reacting 10 mM glycine-HCl, pH 1.5.
row,He_2aH/2b (IIaH/IIb) [ratio],Binder
1,0.28,B1
2,0.37,B2
3,0.78,B3
4,0.52,B4
5,0.73,B5
6,0.66,B6
7,0.17,B7

# Biological target: T2, FcγRIIb extracellular domain with …
# Test: SPR (Biacore), antibody captured on antigen-peptide chip, FcgRIIb as analyte; binding relative to GpH7-A5/GpH7-B3/GpL16-k0 (HeCon Ab) = 100
row,He/Con_2b,Binder
1,126 % of control,B8
2,109 % of control,B9
3,113 % of control,B10

# Biological target: T2, FcγRIIb extracellular domain with …
# Test: SPR (Biacore), antibody captured on antigen-peptide chip, FcgRIIb as analyte; binding relative to GpH7-B3/GpL16-k0 (HoCon Ab) = 100
row,Ho/Con_2b,Binder
1,135 % of control,B11
2,396 % of control,B12
3,116 % of control,B13
4,224 % of control,B14
5,274 % of control,B15
6,272 % of control,B16
7,124 % of control,B17
8,113 % of control,B18
9,327 % of control,B19
10,171 % of control,B20
11,115 % of control,B21
12,206 % of control,B22

# Biological target: T3, FcγRIIb
# Test: SPR (Biacore), relative binding vs GpH7-A5/GpH7-B3/GpL16-k0
row,He/Con_2b,Binder
1,218 % of control He Ab (=100),B1
2,57.2 % of control He Ab (=100),B2
3,108 % of control He Ab (=100),B3
4,89.2 % of control He Ab (=100),B4
5,134 % of control He Ab (=100),B5
6,57.2 % of control He Ab (=100),B6
7,71.9 % of control He Ab (=100),B7

# Biological target: T1, FcγRIIa H
# Test: as above
row,He/Con_2aH,Binder
1,61.3 % of control He Ab (=100),B1
2,21.2 % of control He Ab (=100),B2
3,85 % of control He Ab (=100),B3
4,46.4 % of control He Ab (=100),B4
5,97.2 % of control He Ab (=100),B5
6,37.9 % of control He Ab (=100),B6
7,12 % of control He Ab (=100),B7
